Measured values taken from patent publication US20150259684.

Molecular target: T1, NM Cas9 (Neisseria meningitidis) (UniProt C9X1G5)
T1 sequence: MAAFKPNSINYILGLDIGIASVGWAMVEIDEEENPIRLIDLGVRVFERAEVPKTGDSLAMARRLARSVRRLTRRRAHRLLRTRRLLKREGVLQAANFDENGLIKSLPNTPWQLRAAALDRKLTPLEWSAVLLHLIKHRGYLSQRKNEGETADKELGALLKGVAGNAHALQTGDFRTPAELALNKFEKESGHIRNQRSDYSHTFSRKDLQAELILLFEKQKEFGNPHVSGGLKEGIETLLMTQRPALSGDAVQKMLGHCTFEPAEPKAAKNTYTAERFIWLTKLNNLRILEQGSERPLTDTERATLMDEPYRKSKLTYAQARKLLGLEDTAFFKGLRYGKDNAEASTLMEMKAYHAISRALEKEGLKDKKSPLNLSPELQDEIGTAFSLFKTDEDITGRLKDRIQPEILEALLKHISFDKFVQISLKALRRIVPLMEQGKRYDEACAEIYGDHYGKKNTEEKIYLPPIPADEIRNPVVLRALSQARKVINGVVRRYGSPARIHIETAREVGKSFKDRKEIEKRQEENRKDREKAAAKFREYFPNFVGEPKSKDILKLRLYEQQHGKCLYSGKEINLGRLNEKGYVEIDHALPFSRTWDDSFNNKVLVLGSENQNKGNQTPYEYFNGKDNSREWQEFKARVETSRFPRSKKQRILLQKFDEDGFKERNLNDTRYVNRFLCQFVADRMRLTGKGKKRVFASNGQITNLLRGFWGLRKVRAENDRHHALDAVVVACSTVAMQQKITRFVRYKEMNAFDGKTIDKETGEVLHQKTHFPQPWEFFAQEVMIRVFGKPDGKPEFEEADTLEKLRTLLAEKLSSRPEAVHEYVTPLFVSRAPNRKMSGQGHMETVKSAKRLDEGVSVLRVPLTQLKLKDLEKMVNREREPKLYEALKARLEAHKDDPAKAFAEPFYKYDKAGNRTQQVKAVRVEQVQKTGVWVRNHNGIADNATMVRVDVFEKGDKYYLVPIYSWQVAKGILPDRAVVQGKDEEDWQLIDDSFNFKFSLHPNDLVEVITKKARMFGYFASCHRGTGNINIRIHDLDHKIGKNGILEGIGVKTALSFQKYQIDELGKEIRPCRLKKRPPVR
Test: cell_activity
Details: PAM NCCAGGTN depleted only 4-fold; protospacer for this value not stated

Sequence “UACCAUCUCAAGCUUGUUGAGUUGUAGCUCCCUUUCUCAUUUCGCAGUGCUACAAU / TACCATCTCAAGCTTGTTGANCCAGGTN / NACCTGGNTCAACAAGCTTGAGATGGTA” has an activity (fold depletion) of 4.
